These results are taken from patent US20240368283A1 (published 2024).

T1: human FcγRIIβ (human, UniProt P31994 46-217, limits assumed)
T1 construct: also called FcγRIIb; R2b
T1 sequence (looked up): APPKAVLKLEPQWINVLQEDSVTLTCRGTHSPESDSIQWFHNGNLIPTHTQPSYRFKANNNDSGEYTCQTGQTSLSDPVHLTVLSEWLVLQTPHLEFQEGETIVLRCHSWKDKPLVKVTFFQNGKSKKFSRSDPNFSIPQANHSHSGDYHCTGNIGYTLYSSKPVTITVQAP

T2: huFcγRIIβ (human, UniProt P31994 46-217)
T2 construct: also called huR2b; human FcγRIIβ (soluble antigen)
T2 sequence (looked up): T1 sequence (looked up)

T3: huFcγRIIα (R131) (human, UniProt P12318 36-218)
T3 construct: R131 allotype; also called human FcγRIIα R131 (soluble antigen)
T3 sequence (looked up): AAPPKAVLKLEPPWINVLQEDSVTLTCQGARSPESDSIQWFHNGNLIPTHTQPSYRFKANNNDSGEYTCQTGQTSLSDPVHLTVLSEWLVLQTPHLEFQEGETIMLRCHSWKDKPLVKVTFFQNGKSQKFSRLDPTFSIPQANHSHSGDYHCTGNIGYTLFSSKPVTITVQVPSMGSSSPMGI

B1: ARB49 (antibody, human IgG1, kappa)
heavy: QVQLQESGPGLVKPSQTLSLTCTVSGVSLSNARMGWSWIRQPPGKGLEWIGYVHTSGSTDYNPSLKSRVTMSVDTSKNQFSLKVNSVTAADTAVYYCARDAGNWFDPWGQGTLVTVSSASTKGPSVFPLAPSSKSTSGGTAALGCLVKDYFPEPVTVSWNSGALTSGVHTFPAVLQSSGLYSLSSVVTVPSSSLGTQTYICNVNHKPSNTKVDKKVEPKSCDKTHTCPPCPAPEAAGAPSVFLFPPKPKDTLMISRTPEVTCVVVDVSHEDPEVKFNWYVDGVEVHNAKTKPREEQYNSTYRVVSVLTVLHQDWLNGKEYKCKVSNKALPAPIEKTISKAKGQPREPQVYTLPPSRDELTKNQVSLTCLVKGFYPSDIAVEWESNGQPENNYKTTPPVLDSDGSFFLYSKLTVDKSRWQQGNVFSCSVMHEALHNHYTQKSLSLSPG
light: EIVMTQSPATLSLSPGERATLSCRASQSLSSSHLAWYQQKPGQAPRLLIYDASIRVPGIPARFSGSGSGTDFTLTISSLEPEDFAVYYCQQYAVPPITFGGGTKVEIKRTVAAPSVFIFPPSDEQLKSGTASVVCLLNNFYPREAKVQWKVDNALQSGNSQESVTEQDSKDSTYSLSSTLTLSKADYEKHKVYACEVTHQGLSSPVTKSFNRGEC
notes: copies: 2 + 2
B2: ARB40 (antibody, human IgG1, kappa)
heavy: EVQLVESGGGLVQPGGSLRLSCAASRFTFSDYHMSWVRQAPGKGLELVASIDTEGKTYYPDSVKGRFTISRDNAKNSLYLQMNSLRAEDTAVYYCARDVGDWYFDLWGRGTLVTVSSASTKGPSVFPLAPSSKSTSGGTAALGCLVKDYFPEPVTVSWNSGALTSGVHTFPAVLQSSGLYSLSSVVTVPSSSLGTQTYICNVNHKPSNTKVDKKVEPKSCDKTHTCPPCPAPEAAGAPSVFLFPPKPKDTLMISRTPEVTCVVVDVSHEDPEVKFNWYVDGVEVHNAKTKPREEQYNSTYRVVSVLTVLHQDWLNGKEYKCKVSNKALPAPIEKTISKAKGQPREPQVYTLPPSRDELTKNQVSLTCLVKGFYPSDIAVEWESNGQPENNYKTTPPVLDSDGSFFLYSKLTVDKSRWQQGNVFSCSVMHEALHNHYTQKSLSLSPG
light: DIVMTQSPLSLPVTPGEPASISCRSSRSLVHGSGDNYLHWYLQKPGQSPQLLIYMASNRAPGVPDRFSGSGSGTDFTLKISRVEAEDVGVYYCMQALRAPFSFGGGTKVEIKRTVAAPSVFIFPPSDEQLKSGTASVVCLLNNFYPREAKVQWKVDNALQSGNSQESVTEQDSKDSTYSLSSTLTLSKADYEKHKVYACEVTHQGLSSPVTKSFNRGEC
notes: copies: 2 + 2
B3: TA28 (bispecific antibody, human IgG1, kappa)
heavy: not shown
light: DIQMTQSPSSLSASVGDRVTITCQASQSPNNLLAWYQQKPGKAPKLLIYGASDLPSGVPSRFSGSGSGTDFTLTISSLQPEDFATYYCQNNYYVGPVSYAFGGGTKVEIKRTVAAPSVFIFPPSDEQLKSGTASVVCLLNNFYPREAKVQWKVDNALQSGNSQESVTEQDSKDSTYSLSSTLTLSKADYEKHKVYACEVTHQGLSSPVTKSFNRGEC
B4: TA36 (bispecific antibody, human IgG1, kappa)
heavy: not shown
light: B3 light
B5: TA39 (bispecific antibody, human IgG1, kappa)
heavy: not shown
light: B3 light
B6: TA25 (bispecific antibody, human IgG1, kappa)
heavy: not shown
light: B3 light
B7: TA26 (bispecific antibody, human IgG1, kappa)
heavy: not shown
light: B3 light
B8: TA26 (bispecific antibody, human IgG1, kappa)
heavy: not shown
light: B3 light
B9: TA36 (bispecific antibody, human IgG1, kappa)
heavy: not shown
light: B3 light
B10: TA28 (bispecific antibody, human IgG1, kappa)
heavy: not shown
light: B3 light
B11: TA25 (bispecific antibody, human IgG1, kappa)
heavy: not shown
light: B3 light
B12: TA39 (bispecific antibody, human IgG1, kappa)
heavy: not shown
light: B3 light
B13: TA359 (antibody, human IgG1, lambda)
heavy: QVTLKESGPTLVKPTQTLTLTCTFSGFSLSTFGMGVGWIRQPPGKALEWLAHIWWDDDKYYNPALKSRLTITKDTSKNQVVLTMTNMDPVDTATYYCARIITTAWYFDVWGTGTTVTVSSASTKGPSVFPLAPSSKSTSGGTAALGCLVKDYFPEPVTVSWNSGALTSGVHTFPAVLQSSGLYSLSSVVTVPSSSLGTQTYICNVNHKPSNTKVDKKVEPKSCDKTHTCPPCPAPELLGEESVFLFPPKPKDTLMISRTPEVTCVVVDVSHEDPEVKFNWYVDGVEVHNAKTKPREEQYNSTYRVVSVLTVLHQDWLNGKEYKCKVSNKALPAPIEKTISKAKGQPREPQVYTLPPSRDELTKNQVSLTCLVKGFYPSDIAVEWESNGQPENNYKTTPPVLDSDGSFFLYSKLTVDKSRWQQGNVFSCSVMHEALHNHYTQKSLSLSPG
light: QAVVTQEPSLTVSPGGTVTLTCRSSTGAVTTSNYANWVQQKPGQAFRGLIGGTNNRAPGVPDRFSGSILGNKAALTITGAQADDESDYYCALWYSNHFIFGSGTKVTVLGQPKAAPSVTLFPPSSEELQANKATLVCLISDFYPGAVTVAWKADSSPVKAGVETTTPSKQSNNKYAASSYLSLTPEQWKSHRSYSCQVTHEGSTVEKTVAPTECS
B14: TA30 (bispecific antibody, human IgG1, kappa)
heavy: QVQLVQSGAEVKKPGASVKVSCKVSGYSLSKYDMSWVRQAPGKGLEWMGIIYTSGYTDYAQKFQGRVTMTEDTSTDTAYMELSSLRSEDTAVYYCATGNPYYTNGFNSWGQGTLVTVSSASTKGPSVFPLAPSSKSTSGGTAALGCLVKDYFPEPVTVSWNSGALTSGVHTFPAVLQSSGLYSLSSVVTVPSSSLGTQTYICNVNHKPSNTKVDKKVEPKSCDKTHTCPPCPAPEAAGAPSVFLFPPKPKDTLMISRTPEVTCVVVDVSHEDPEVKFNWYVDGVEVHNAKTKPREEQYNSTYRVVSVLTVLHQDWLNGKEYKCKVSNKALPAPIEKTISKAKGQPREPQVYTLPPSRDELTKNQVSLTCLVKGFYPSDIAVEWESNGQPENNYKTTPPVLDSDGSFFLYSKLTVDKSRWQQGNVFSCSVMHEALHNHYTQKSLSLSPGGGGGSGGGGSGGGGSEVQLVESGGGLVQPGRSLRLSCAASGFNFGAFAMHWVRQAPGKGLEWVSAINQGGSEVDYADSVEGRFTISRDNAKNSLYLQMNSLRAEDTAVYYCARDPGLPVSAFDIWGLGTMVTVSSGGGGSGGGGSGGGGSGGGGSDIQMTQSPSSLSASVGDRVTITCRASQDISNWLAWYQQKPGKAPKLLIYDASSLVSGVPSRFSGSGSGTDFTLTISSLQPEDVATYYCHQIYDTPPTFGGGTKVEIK
light: B3 light

T6 sequence (P55899 24-297, chain 1 of 2): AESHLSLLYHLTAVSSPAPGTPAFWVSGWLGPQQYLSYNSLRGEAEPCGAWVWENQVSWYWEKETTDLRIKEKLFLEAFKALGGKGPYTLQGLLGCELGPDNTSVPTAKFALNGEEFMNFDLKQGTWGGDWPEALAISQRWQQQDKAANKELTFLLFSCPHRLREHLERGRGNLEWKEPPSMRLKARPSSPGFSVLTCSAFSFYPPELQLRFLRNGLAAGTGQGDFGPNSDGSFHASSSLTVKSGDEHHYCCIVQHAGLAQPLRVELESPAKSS
T6 sequence (P61769 21-119, chain 2 of 2, further chain): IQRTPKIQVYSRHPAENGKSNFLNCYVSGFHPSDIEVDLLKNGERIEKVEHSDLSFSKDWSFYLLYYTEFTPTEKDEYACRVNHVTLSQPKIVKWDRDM
T4 sequence (Q15116 25-170 limits assumed): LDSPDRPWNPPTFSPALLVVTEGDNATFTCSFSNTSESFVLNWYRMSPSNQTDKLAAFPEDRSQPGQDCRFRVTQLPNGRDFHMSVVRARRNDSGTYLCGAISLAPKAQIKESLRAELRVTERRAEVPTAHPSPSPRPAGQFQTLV

The first experiment concerns the target T1, human FcγRIIβ. Kind of experiment: SPR, antibody captured on ProA/G HC30M chip, recombinant human FcγRIIβ injected (4 nM-5 uM); average kinetic KD. Here is the method: (§1) Example 52: The binding of anti-FcγRIIβ antibodies to human FcγRIIβ was evaluated. Antibodies were captured on ProA/G HC30M chip at 5 ug/mL, 1 ug/mL, and 0.2 ug/mL for 15 minutes. Six buffer injections were made over the chip followed by injections of increasing concentrations of recombinant human FcγRIIβ (4 nm-5 uM). The association was measured during each injection for 5 minutes and the dissociation was measured for 10 minutes post injection with buffer flow (1×HBSTE+ BSA).
For orientation: In SPR one partner is held on a chip, and binding of the other changes the refractive index at the surface.
On to B1, for which the Kd (in general, the free concentration of one partner at which half of the binding sites on the other are occupied at equilibrium, for simple one-to-one binding) stood at 37.3 nM.

B2: the dissociation constant (Kd) was 120 nM.

The target of another experiment is human FcγRIIIα (human, UniProt P08637 17-208, limits assumed). Kind of experiment: BLI, antibody captured on AHC biosensors, receptor in two-fold dilutions. How it is done: (§2) Example 20: Anti-FcγRIIβ antibodies were captured on AHC biosensors at a concentration of 5 μg/mL. Antigens (FcγRI or FcγRIIIα) were serially diluted two-fold with a starting concentration of 5 μM. The biosensors with immobilized antibodies were dipped into the different antigen concentrations and kinetics data were collected.
Chain of human FcγRIIIα (P08637 17-208 limits assumed): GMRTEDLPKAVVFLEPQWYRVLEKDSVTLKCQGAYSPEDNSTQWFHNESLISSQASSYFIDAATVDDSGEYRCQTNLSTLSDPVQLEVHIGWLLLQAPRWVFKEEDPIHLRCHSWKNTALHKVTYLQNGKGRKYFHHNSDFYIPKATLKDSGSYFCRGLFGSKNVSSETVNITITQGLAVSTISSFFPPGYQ
Background: BLI is a label-free optical method that tracks binding on a fibre tip over time.
Take B3: the binding result is “no binding (tested: 5 µM starting concentration)”.

For B4, the binding result is reported as “no binding (tested: 5 µM starting concentration)”.

In the case of B5, the binding result was “no binding (tested: 5 µM starting concentration)”.

Regarding B6, the binding result was “no binding (tested: 5 µM starting concentration)”.

Consider B7, for which the binding result was “no binding (tested: 5 µM starting concentration)”.

The next experiment deals with human FcγRI (human, UniProt P12314 16-288, limits assumed). Described as above. Here is the method: as §2
Chain of human FcγRI (P12314 16-288 limits assumed): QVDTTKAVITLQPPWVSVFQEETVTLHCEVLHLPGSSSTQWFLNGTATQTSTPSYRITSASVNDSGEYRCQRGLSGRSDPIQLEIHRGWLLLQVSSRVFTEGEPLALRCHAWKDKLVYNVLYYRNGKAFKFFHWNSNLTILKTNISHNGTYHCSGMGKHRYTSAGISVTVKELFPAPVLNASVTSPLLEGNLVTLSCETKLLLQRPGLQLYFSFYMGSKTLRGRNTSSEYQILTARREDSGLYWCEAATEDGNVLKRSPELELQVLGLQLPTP
B3: the binding result is on record as “no binding (tested: 5 µM starting concentration)”.

Regarding B4, the binding result was “no binding (tested: 5 µM starting concentration)”.

For the molecule B5, the binding result was “no binding (tested: 5 µM starting concentration)”.

Consider B6, for which the binding result is on record as “no binding (tested: 5 µM starting concentration)”.

Regarding B7, the binding result is “no binding (tested: 5 µM starting concentration)”.

The target in the next experiment is T2, huFcγRIIβ. Kind of experiment: BLI, antibody captured on AHC biosensors, receptor in solution. How it is done: (§3) Example 19: Anti-FcγRIIβ antibodies were captured on AHC biosensors at a concentration of 5 μg/mL. Antigens (FcγRIIα/FcγRIIβ) were serially diluted two-fold with a starting concentration of 5u M. The biosensors with immobilized antibodies were dipped into the different antigen concentrations and kinetics data were collected.
On to B8, for which the dissociation constant (Kd) came out at 50.2 nM.

With B9, the Kd is 45 nM.

Consider B10, for which the Kd worked out at 11 nM.

B11 came in with a Kd of 122 nM.

Turning to B12, the equilibrium dissociation constant (Kd) is 30.3 nM.

For a further experiment, the target named is T3, huFcγRIIα (R131). The description is as above. Here is the method:
as §3
Turning to B8, the Kd was determined as 715 nM.

Consider B9, for which the Kd worked out at 141 nM.

In the case of B10, binding was characterised by a dissociation constant (Kd) of 623 nM.

Take B11: the Kd stood at 114000 nM.

Molecule B12 returned a Kd of 115 nM.

Another experiment concerns the target T1, human FcγRIIβ. The experiment can be described thus: SPR, antibody captured on ProA/G HC30M chip, recombinant human FcγRIIβ injected (4 nM-5 uM); average steady state KD. How it is done:
as §1
In the case of B1, the Kd worked out at 40 nM.

On to B2, for which the Kd stood at 120 nM.

In another experiment the target is FcγRI. The experiment can be described thus: Fc receptor affinity, Table 29 (method for Fc receptors not told in Example 43).
Chain of FcγRI (P12314 16-292): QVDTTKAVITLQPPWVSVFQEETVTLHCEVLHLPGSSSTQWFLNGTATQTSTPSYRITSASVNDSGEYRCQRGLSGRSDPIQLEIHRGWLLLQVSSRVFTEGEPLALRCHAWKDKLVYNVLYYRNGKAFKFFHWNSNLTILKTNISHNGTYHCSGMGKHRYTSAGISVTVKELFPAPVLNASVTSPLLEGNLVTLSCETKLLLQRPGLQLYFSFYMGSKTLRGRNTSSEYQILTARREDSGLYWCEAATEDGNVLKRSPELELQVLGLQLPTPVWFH
Regarding B13, the “Affinity to RI relative to WT” value is > 10 fold lower than WT.

For another experiment, the target named is T1, human FcγRIIβ. Described as above.
For the molecule B13, binding was characterised by a dissociation constant (Kd) of 3100 nM.

The next experiment has as its target T4, Recombinant human PD-1 (human, UniProt Q15116 25-170, limits assumed).
T4 construct: Soluble recombinant analyte in BLI; also called huPD1
The experiment can be described thus: BLI (Octet RED96), antibody captured on anti-human IgG Fc biosensors, PD-1 titrated; steady state (footnote *).
With B13, the Kd amounted to 1000 nM.

For the next experiment, the target named is T5, Cyno PD-1 (cyno).
T5 construct: also called cynomolgus PD-1; cyPD1
The description is as above.
In the case of B13, the Kd came to 600 nM.

The target of the next experiment is PD-1 (in the reporter cells of the PD-1 agonism assay) (Homo sapiens (Human), UniProt Q15116 25-288). The experiment can be described thus: cell-based or functional assay.
Chain of PD-1 (in the reporter cells of the PD-1 agonism assay) (Q15116 25-288 limits assumed): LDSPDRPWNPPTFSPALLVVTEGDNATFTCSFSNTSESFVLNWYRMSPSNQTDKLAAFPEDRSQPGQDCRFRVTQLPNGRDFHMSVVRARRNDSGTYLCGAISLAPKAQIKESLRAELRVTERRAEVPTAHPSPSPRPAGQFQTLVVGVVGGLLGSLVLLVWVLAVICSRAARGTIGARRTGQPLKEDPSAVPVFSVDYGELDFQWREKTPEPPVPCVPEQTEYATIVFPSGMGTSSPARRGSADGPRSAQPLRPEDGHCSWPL
B13: the Emax came to 2.2 and the “log EC50” value is -8.3.

A further experiment addresses T2, huFcγRIIβ. The experiment can be described thus: BLI; ratio of the KD for huFcγRIIα (R131) to the KD for huFcγRIIβ. How it is done: as §3
As to B8, the Fold selectivity is 14 fold.

Consider B9, for which the Fold selectivity was 3 fold.

Turning to B10, the Fold selectivity worked out at 56 fold.

For the molecule B11, the Fold selectivity is 934 fold.

B12: the Fold selectivity worked out at 4 fold.

Another experiment has as its target T6, FcRN.
T6 construct: also called neonatal Fc receptor
Kind of experiment: BLI (AHC biosensors by Example 20); table headed FcRN Binding.
On to B8, for which binding was put at a Kd of 236 nM; the koff (in general, the rate constant with which the complex falls apart) worked out at 0.0951 s⁻¹; the kon (in general, the second-order rate constant of association) came to 403000 M⁻¹ s⁻¹.

With B9, the affinity, expressed as Kd, was 289 nM; the koff is 0.118 s⁻¹; the on-rate (kon) came to 407000 M⁻¹ s⁻¹.

B10 registered a Kd of 273 nM, a koff of 0.103 s⁻¹ and a kon of 378000 M⁻¹ s⁻¹.

For B11, the affinity, expressed as Kd, was 231 nM; the koff turned out to be 0.0788 s⁻¹; the kon came out at 341000 M⁻¹ s⁻¹.

Take B12: the affinity, expressed as Kd, was 250 nM; the off-rate (koff) came out at 0.1 s⁻¹; the kon was 400000 M⁻¹ s⁻¹.

The next experiment has as its target T7, CyR2b (monkey).
T7 construct: also called monkey FcγRIIβ; Cy FcγRIIβ
Kind of experiment: SPR, antibody captured on protein A/G chip, receptor injected as analyte. Here is the method: (§4) Example 21: Anti-FcγRIIβ antibodies were captured on protein A/G chips at 10 ug/mL, 1 ug/mL and 0.1 ug/mL concentrations (in duplicates). Each analyte binder was injected at 7 concentrations with 5-fold serial dilutions, with the starting concentration for FcγRs at 5 uM, and for PD-1 at 0.5 uM. […] Kinetics data was subsequently collected.
On to B14, for which the Kd is 1210 nM.

B8 returned a Kd of 3130 nM.

As to B9, the dissociation constant (Kd) was 3660 nM.

For B11, the Kd worked out at 1500 nM.

For a further experiment, the target named is T8, CyR2a (monkey).
T8 construct: also called monkey FcγRIIα; Cy FcγRIIα
The description is as above. Here is the method:
as §4
In turn, B14 gave a Kd of 1120 nM.

As to B8, binding was characterised by a dissociation constant (Kd) of 2480 nM.

In the case of B9, the affinity, expressed as Kd, was 2300 nM.

Molecule B11 displayed a Kd of 777 nM.

The target of another experiment is T2, huFcγRIIβ. The experiment is described as above. How it is done:
as §4
Molecule B14 gave a Kd of 56.1 nM.

B8 returned a Kd of 154 nM.

Turning to B9, the Kd was found to be 299 nM.

B11 displayed a Kd of 253 nM.

The next experiment has as its target huR2a (human, UniProt P12318 36-218). Described as above. How it is done: as §4
The molecule B14 had a Kd of 633 nM.

Take B8: the Kd was found to be 6510 nM.

As to B9, binding was put at a Kd of 4060 nM.

As for B11, the Kd amounted to 6080 nM.
